Target: T1, C-phycocyanin (Spirulina platensis, UniProt P72509 1-162; P72508 1-172)
T1 construct: C-phycocyanin alpha subunit, Spirulina platensis; C-phycocyanin beta subunit, Spirulina platensis; the source organism is told in the introduction only; also called C-PC; source: bought: Aladdin, Shanghai
Test: SPR; equilibrium dissociation constant; who was immobilised and the conditions not given
Details: both partners purified

Kd: 683 nM
B1: activating transcription factor 3 (natural protein, UniProt P18847 1-181, looked up)
chain: MMLQHPGQVSASEVSASAIVPCLSPPGSLVFEDFANLTPFVKEELRFAIQNKHLCHRMSSALESVTVSDRPLGVSITKAEVAPEEDERKKRRRERNKIAAAKCRNKKKEKTECLQKESEKLESVNAELKAQIEELKNEKQHLIYMLNLHRPTCIVRAQNGRTPEDERNLFIQQIKEGTLQS
notes: ATF3 as used in the SPR experiment; the ATF3 protein used there is not described; also called ATF3

Reference: PMC11300487, “C-phycocyanin reinforces autophagy to block pulmonary fibrogenesis by inhibiting lncIAPF biogenesis” (Archives of Pharmacal Research, 2024)
